Experimental data published in patent publication US20250340655A1, “EPHA2-TARGETING ANTIBODIES AND THEIR APPLICATIONS IN CANCER TREATMENT” (TAIPEI MEDICAL UNIVERSITY, priority 2022, published 2025).

Legend:
BxPc-3 tumor = BxPc-3 tumor xenograft model (IgG hSD5, gemcitabine); assay type: in vivo, mouse
Description: (§1) The freshly prepared BxPc-3 and Mia PaCa-2 cancer cells were harvested during the log growth phase and resuspended in PBS for tumor implantation. Each NOD/SCID mouse was subcutaneously inoculated with cancer cells (5×10^6 to BxPc-3 and 1×10^7 to Mia PaCa-2) for tumor formation. The tumor size was measured twice weekly, and the volume was calculated as follows: V=0.5lw^2, where l=the length and w=the width. When the tumor size was approximately 100 mm3, animals were divided into groups that received (a) vehicle alone through intravenous injection (i.v.) once weekly (qwk), (b) control human IgG1 at 20 mg/kg through i.v. qwk, (c) and (d) hSD5 IgG1 at 2 or 20 mg/kg through i.v. qwk, (e) and (f) gemcitabine at 20 or 100 mg/kg through i.v. twice weekly (biw), or (g) hSD5 IgG1 at 2 mg/kg through i.v. qwk combined with gemcitabine at 20 mg/kg through i.v. biw. At the end of the experiment, the antitumor effects were quantified by dividing the tumor volumes in the treatment groups by those in the control groups and multiplying them by 100 to represent tumor growth inhibition (TGI; %). The mice were also examined frequently for overt signs of adverse drug-related side effects.
(§2) The pancreatic tissue microarray slide (US Biomax, PA483e) was used to detect and analyze the EphA2 expression of clinical samples. In the xenograft animal model, the excised BxPc-3 and Mia PaCa-2 tumors were fixed in formalin, embedded in paraffin, and sliced for immunohistochemical staining (IHC). Commercial antibodies (Cell signaling, Dako; Agilent Technologies; and Abcam) were used for staining the EphA2 molecule, cell proliferation marker Ki-67, and apoptosis marker cleaved caspase 3. The effects of staining were observed using a Zeiss Axioskop-2 microscope (Carl Zeiss).
(§3) Administration of IgG hSD5 (20 mg/kg, iv, qwk, indicated as blue filled inverted triangles) and Gemcitabine (100 mg/kg, iv, biw, indicated as orange filled squares) were used to test the inhibition effect on BxPc-3 tumor growth, n=6, TGI denotes Tumor growth inhibition. (FIG. 7A) Administration of IgG hSD5 (2 mg/kg, iv, qwk, indicated by solid black triangles), Gemcitabine (20 mg/kg, iv, biw, indicated by black open squares), and the experimental group that combined IgG and Gemcitabine treatment simultaneously (indicated by solid red diamonds) were used to teat the growth inhibitory effect of BxPc-3 on the tumor. (FIG. 7B) During treatments, the weight changes of each mouse group were tracked. (FIG. 7C) The expression levels of EphA2, cell proliferation marker Ki67, and apoptosis-related marker cleaved caspase3 in the excised tumor groups were analyzed by IHC staining. (FIG. 7D)

Mia PaCa-2 tumor = Mia PaCa-2 tumor xenograft model (IgG hSD5, gemcitabine); assay type: in vivo, mouse
Description: as §1, §2
as §3, with “Mia PaCa-2 xenograft mice was also used to determine the inhibitory effect of IgG hSD5 on in vivo tumor growth. Administration of” for “Administration of”, “inhibition. (FIG. 8A) Administration of” for “inhibition. (FIG. 7A) Administration of”, “tumor. (FIG. 8B) During treatments,” for “tumor. (FIG. 7B) During treatments,”, “tracked. (FIG. 8C) The expression” for “tracked. (FIG. 7C) The expression”, “staining. (FIG. 8D)” for “staining. (FIG. 7D)”

[1] = tested on: EphA2pep_P1, EphA2pep_P2, EphA2pep_PIP2 synthetic peptides; test: Peptide ELISA for epitope definition; assay type: binding
Excerpt: We used peptide enzyme-linked immunosorbent assay (ELISA) to identify the designed epitope on EphA2; the BSA-conjugated peptides EphA2pep_P1 (BSA-[…]) and EphA2pep_P2 (BSA-[…]) each represent the two segments of the linear epitope designed on EphA2. EphA2pep_PIP2 (BSA-[…]) represents the two linear epitope sequences connected by a linker. These peptides were synthesized and conjugated with BSA (Kelowna International Scientific). The BSA-conjugated peptides were individually coated on a 96-well microplate at 4° C. overnight. After the wells were blocked with 3% BSA, IgG hSD5 was added and incubated. Next, an HRP-conjugated anti-HA tag antibody (Cell Signaling Technology) was used to detect bound scFv. Finally, the TMB substrate was added for development, and the reaction was stopped by adding 1 N HCl. Absorbance was measured by determining the OD at 450 nm. A dot blot assay was used to detect the binding of IgG hSD5 to the synthesized peptides; […] of individual peptides (1 mg/mL; in triplicate) were dropped on the NC membrane and maintained at RT for complete absorption. Blocking with 3% BSA was performed at RT for 1 h. Then, IgG hSD5 (10 μg/mL) was added, and the reaction was allowed to proceed for 1 h at RT. After the membrane was washed, the HRP-conjugated anti-HA tag antibody was added, and the reaction was allowed to proceed for 1 h at RT. Lastly, DAB was used to initiate the coloration reaction.
To determine whether the antibody hSD5 can recognize two antigen fragments simultaneously, peptide synthesis of the two antigen fragments was performed to test the binding reaction of antibody IgG hSD5. The ELISA was used to test the binding reactivity of the antibody hSD5 to synthetic peptides. The two short peptides located on the designed activation site of EphA2 are EphA2pep_P1 and EphA2pep_P2, respectively. The long peptide formed by linking the two short peptides is EphA2pep_PIP2. NCIpep and NC2pep are two irrelevant peptides as the negative control. EphA2 ECD is a recombinant EphA2 extracellular domain protein.

[2] = tested on: hTERT HPNE, AsPC-1, BxPc-3, and Mia PaCa-2; test: Growth inhibitory response of pancreatic cell lines to serially diluted hSD5-ADC; assay type: cell-based, human; details: serial dilution (FIGS. 11A-11D)
HCT116, SW480 and SW460 = test: MTS growth inhibition, colon cancer cells; assay type: cell-based; details: 3 days (FIG. 18C)
Description: The growth inhibitory effect of hSD5-ADC on the three strains of colon cancer cells were tested under different concentrations. At indicated concentrations interacted with the cancer cells for 3 days, and the effects on the growth of cancer cells were observed by MTS assay. (FIG. 18C)

B1: IgG hSD5: complete humanized anti-EphA2 IgG (IgG1) of hSD5 (antibody, V domains shown)
VH: QVQLVESGGGLVQPGGSLRLSCAASGFTFSDYGMGWVRQAPGKGLEWVAGISAAGSFTPYGAAVKGRFTISRDNSKNTVYLQMNSLRAEDTAVYYCARIPSGYRAGEIYTWGQGTLVTVSS
VL: LTQPPSVSVSPGQTVRITCSGSSGSYGWYQQKSPGQAPVTLIYDNDKRPSGIPERFSGSSSGSTSTLTISGVQAEDEADYYCGSADSSTYVGMFGGGTKLTVL
- effect on growth of tumors in vivo (BxPc-3 tumor; BxPc-3 xenograft mice): significantly inhibited the growth of tumors
- TGI (tumor growth inhibition) (BxPc-3 tumor; BxPc-3 xenograft, 20 mg/kg, iv, qwk): 53.1%
- expression levels of EphA2 and Ki-67 in the tumors (BxPc-3 tumor; IHC of removed BxPc-3 tumors, compared with control IgG group (FIG. 7D)): significantly decreased
- expression levels of EphA2 and Ki-67 in the tissue (Mia PaCa-2 tumor; IHC of Mia PaCa-2 tumor tissue sections (FIG. 8D)): significantly decreased
- TGI (tumor growth inhibition) (Mia PaCa-2 tumor; Mia PaCa-2 xenograft, 20 mg/kg): 63.2%
- binding to long peptide EphA2pep_PIP2 ([1]; peptide ELISA (FIG. 9A)): exhibited a binding response
- binding to short peptides EphA2pep_P1 and EphA2pep_P2 ([1]; peptide ELISA (FIG. 9A)): individually recognized
- interaction with EphA2pep_P1 compared with EphA2pep_P2 ([1]; peptide ELISA (FIG. 9A)): stronger
- cross-binding to two irrelevant peptides ([1]; peptide ELISA, NC peptides (FIG. 9A)): did not exhibit a cross-binding reaction
- growth inhibitory response of pancreatic cell lines [2]: does not provide ideal inhibition effect
- growth inhibitory response of colon cancer cells (HCT116, SW480 and SW460): does not provide ideal inhibition effect
